Measured values taken from patent US9382304B2, “Engineered polypeptides having enhanced duration of action with reduced immunogenicity” (priority 2011, dated 2016).
Like-named read-outs stand apart in the source and are kept apart here.

What was measured:
[1] = test system: IgG molecules present in normal human sera; assay: Serum response analysis by ELISA (IgG binding to albumin binding polypeptides); details: 126 sera positive for one or more albumin binding polypeptides; sera diluted 50 times
Protocol: The percentage of human serum containing IgG, capable of binding to a set of albumin binding polypeptides as disclosed herein was analyzed by ELISA.
The plates were coated over night […] at 4° C. On the day of analysis, the plates were washed twice with tap water and blocked for 2 hours with 100 μl of phosphate buffered saline (PBS) containing 0.05% casein (PBSC). […] After incubation for two hours at room temperature (RT), the plates were washed in PBSC four times using an automated ELISA washer. […] 50 μl of the diluted sera was added per well according to the pre-made plate layout. Each serum sample was tested as a singlet. Positive and negative controls were included on each plate and for each albumin binding polypeptide. […] The plates were incubated for one hour at RT and subsequently washed four times in PBSC using an automated ELISA washer.

[2] = test system: CD3+ CD4+ T cells
[3] = test system: NIH/Swiss mice; assay: OGTT DOA (oral glucose tolerance test duration of action); type: in vivo, mouse; details: dosed 24 hours before OGTT, even at higher doses
From the text: Water and a standard pelleted mouse chow diet were available ad libitum, except as noted. […] Significant treatment effects were identified by ANOVA (p<0.05).

[4] = rat, in vivo; cited from earlier work
[5] = mouse, in vivo; cited from earlier work
[6] = human, in vivo; cited from earlier work
[7] = rabbit, in vivo; cited from earlier work
[8] = molecular target: T1, GLP-1 receptor (Rattus norvegicus, UniProt P32301); assay: GLP-1 receptor functional assay (cAMP induction, HTRF) in rat thyroid carcinoma 6-23 (clone 6) cells; type: cell-based
T1 construct: functional activity was determined using cells that endogenously express GLP-1R; endogenous in cells; host or cells: rat thyroid carcinoma 6-23 (clone 6) cells (ATCC CRL-1607)
T1 sequence (P32301 22-463): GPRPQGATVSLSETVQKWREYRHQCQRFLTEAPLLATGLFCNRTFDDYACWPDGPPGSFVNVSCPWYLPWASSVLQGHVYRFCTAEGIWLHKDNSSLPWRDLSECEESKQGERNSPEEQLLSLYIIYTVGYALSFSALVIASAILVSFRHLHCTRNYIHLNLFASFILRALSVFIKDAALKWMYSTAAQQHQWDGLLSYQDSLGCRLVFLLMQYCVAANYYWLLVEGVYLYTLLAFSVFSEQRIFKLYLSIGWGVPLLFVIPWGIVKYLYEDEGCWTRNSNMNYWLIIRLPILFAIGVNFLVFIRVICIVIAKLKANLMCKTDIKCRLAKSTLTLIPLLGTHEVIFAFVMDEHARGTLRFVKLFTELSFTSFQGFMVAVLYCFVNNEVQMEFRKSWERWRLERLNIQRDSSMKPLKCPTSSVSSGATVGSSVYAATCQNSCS
Protocol: In another embodiment the cell-based assay is a homogeneous time-resolved fluorescence assay (HTRF®). HTRF® kits are commercially available from Cisbio International (Bedford, Mass.). […] See worldwideweb.htrf.com/products/gper/camp/, the disclosure of which is incorporated by reference herein. […] The HTRF® standards and calibrations are prepared following the instructions in the kit. Assays may be performed with or without the presence of albumin.
See for example United States Patent Application Publication US20110097751A1, incorporated by reference for the assay method. In this example, functional activity was determined using cells that endogenously express GLP-1R, and cAMP induction is detected as a measure of exendin activity.
The data above was determined in the presence of about 0.1% bovine serum albumin (BSA).

For `CC[C@H](C)[C@H](NC(=O)[C@H](C)NC(=O)[C@H](CC(=O)O)NC(=O)[C@H](CCCCN)NC(=O)[C@H](CC(C)C)NC(=O)[C@H](C)NC(=O)[C@H](CCC(=O)O)NC(=O)[C@@H](NC(=O)CNC(=O)[C@H](CCC(=O)O)NC(=O)[C@@H](NC(=O)[C@@H](NC(=O)[C@H](CCCCN)NC(=O)[C@H](C)NC(=O)[C@H](CCCCN)NC(=O)[C@H](CC(=O)O)NC(=O)[C@@H](NC(=O)[C@H](CC(C)C)NC(=O)[C@H](CCCNC(=N)N)NC(=O)[C@H](CCCCN)NC(=O)[C@H](Cc1ccc(O)cc1)NC(=O)[C@H](Cc1ccccc1)NC(=O)[C@H](CC(=O)O)NC(=O)[C@H](CO)NC(=O)[C@@H](NC(=O)CNC(=O)[C@H](Cc1ccc(O)cc1)NC(=O)[C@H](CSC1CC(=O)N(CCNC(=O)CN2CCN(CC(=O)O)CCN(CC(=O)O)CCN(CC(=O)O)CC2)C1=O)NC(=O)[C@H](CC(=O)O)NC(=O)[C@H](CC(C)C)NC(=O)[C@H](CCC(=O)O)NC(=O)[C@H](C)NC(=O)[C@H](CC(N)=O)NC(=O)[C@H](C)NC(=O)[C@H](C)NC(=O)[C@H](CCC(=O)O)NC(=O)[C@H](CCCCN)NC(=O)[C@H](C)NC(=O)[C@H](CO)NC(=O)[C@H](C)NC(=O)[C@H](CC(C)C)NC(=O)CN)C(C)C)[C@@H](C)CC)[C@@H](C)O)C(C)C)C(C)C)C(=O)N[C@@H](CC(C)C)C(=O)N[C@@H](C)C(=O)N[C@@H](C)C(=O)N[C@@H](CC(C)C)C(=O)N1CCC[C@H]1C(=O)O` (some centres unmarked) [PEP07968], the “IgG binding reactivity (average OD-value, percentage of serum with IgG binding)” value [1] was “least reactivity”, the immunogenicity definition [2] was “non-immunogenic” and the “number of donors in which CD3+ CD4+ T cells proliferation was induced, compared to the albumin control” value [2] was 1 donors.

For “GSLAEAKEAANAELDSYGVSDFYKRLIDKAKTVEGVEALKDAILAALP [PEP07986]”, the “activity in OGTT DOA when dosed at t-24 hours” value [3] was “inactive”.

In the case of albumin, the half-life [4] is given as 45.6 h, the half-life [5] is given as 24 h and the half-life [6] is given as 456 h. The half-life [7] was 134 h.

For “rabbit serum albumin: rabbit serum albumin”, the half-life [7] is listed as “about 5 days”.

B1: HGEGTFTSDLSKQLEEEAVRLFIEWLKNTGGGGSASGSLAEAKEAANAELDSYGVSDFYKRLIDKAKTVEGVEALKDAILAALP (protein)
chain: HGEGTFTSDLSKQLEEEAVRLFIEWLKNTGGGGSASGSLAEAKEAANAELDSYGVSDFYKRLIDKAKTVEGVEALKDAILAALP
For B1, the “in vitro activity against the GLP-1 receptor” value [8] was “active in vitro” and the “activity in OGTT DOA when dosed at t-24 hours” value [3] was “did not display 24 duration”.
